Positions count from the first letter of the chain named. Values joined by “and” are separate entries in the source; they are usually repeats but may differ in a detail not shown here. Identical values can stand only once. Like-named read-outs stand apart in the source and are kept apart here.
Legend:
[1] = target: T1, SARS-CoV-2 spike protein receptor binding domain (RBD2) (SARS-CoV-2, UniProt P0DTC2 319-537)
[2] = target: T1, SARS-CoV-2 spike protein receptor …; assay: flow cytometry, yeast-displayed scFv, titration of biotinylated antigen
[3] = target: T1, SARS-CoV-2 spike protein receptor …; assay: flow cytometry, yeast-displayed scFv
[4] = target: T1, SARS-CoV-2 spike protein receptor …; assay: flow cytometry, yeast-expressed scFv
[5] = target: T1, SARS-CoV-2 spike protein receptor …; remark: listed apart in the source
[6] = target: T1, SARS-CoV-2 spike protein receptor …; remark: listed apart in the source
[7] = target: T1, SARS-CoV-2 spike protein receptor …; remark: listed apart in the source
[8] = target: T2, SARS-CoV spike protein receptor binding domain (RBD1) (SARS-CoV, UniProt P59594 306-527); assay: plate immunoassay on immobilized antigen, PE-labelled anti-rabbit/anti-human
[9] = target: T2, SARS-CoV spike protein receptor binding …; assay: ELISA, crude rabbit minibody

B1: B04 scFv (scFv)
scFv: SYVLTQPPSVSVAPGKTARITCGGNNIGIRSVHWYQQKPGQAPVLVIYYDSDRPSGIPERFSGSKSGNTATLTISRVEAGDEADYYCQVWDSSSDHPVFGGGTKLTVLSGGSTITSYNVYYTKLSSSGTQVQLVESGAEVKKPGASVKVSCKASGYTFTRYYMHWVRQAPGQGLEWMGIINPSGGTTSYAQKFQGRVTMTRDTSTSTVYMELSSLRSEDTAVYYCARSFGELTSFDYWGQGTLVTVSS
Work on B1 yielded a Kd [1] of 13.9 nM, a Kd [2] of 13.9 nM and a Kd [3] of 13.9 nM.

B2: D04 scFv (scFv)
scFv: SYVLTQPPSVSVAPGKTARITCGGNNIGWKSVHWYQQKPGQAPVLVVYNDNDRPSGVPERFSGSNSGNTATLTISRVVAGDEADYYCQVWDSSSDHVLFGGGTKLTVLSGGSTITSYNVYYTKLSSSGTQVQLVQSGAEVKKPGSSVKVSCKASGGTFSSYAISWVRQAPGQGLEWMGGIIPIFGTANYAQKFQGRVTITADESTSTAYMELSSLRSEDTAVYYCARASGRWLQFWHYYGMDVWGQGTTVTVS
B2 was tested, and the Kd [1] was 33 nM and the Kd [2] was 33 nM.

B3: D07 scFv (scFv)
scFv: SYELTQPPSVSVAPGETARMTCGGNNIGTKGVHWYQQKPGQAPVLVVYDDSDRPSGIPERFSGSNAGNTATLTISRVEAGDEADYYCQVWDSRSDQYVFGTRTKLTVLSGGSTITSYNVYYTKLSSSGAQVTLKESGPVLVKPTETLTLTCTVSGFSLSNARMGVSWIRQPPGKALEWLAHIFSNGEKSYSTSLKSRLTISKDTSKSQVVLTMTNMDPVDTATYYCARTLDYYDSSGYLVGGAFDIWGQGTMVTVSS
In the case of B3, the Kd [4] is reported as 268 nM, the Kd [1] is reported as 113 nM and 138 nM and the Kd [2] is reported as 113 nM.

B4: H01 scFv (scFv)
scFv: B3 scFv with S1Q, Y2P, E3G, V12L, E16Q, M20I, T29S, G31S
notes: also called H1
B4 was tested, and the Kd [2] was 66.4 nM, the Kd [5] was 66.4 nM and the Kd [3] was 66.4 nM.

B5: E01 scFv (scFv)
scFv: SYELTQPPSVSVAPGETARITCGGDNIGRRHVHWYQQKPGQAPVLVIYDDSDRPSGIPDRFSGSNSGNTATLTIGRVEAGDEADYYCQVWGSSNDPHVFGTGTKLTVLSGGSTITSNNVYYTKLSSSGTQVQLQQWGAGLLKPSETLSLKCAVYGGSFSGYYWGWIRQSTGKGLEWIGEINRSGSTNYNPSLKSRVTISVDTSKNQFSLKLSSVTAADTAVYYCARGGARYYYGSGSYRSTPRPYYFDYWGQGTLVTVSS
notes: also called E1
Work on B5 yielded a Kd [4] of 16.1 nM, a Kd [2] of 13.9 nM and a Kd [6] of 13.9 nM. The Kd [3] was 13.9 nM.

B6: F07 scFv (scFv)
scFv: SYVLTQPPSVSVAPGQTARITCGGNNIGSKSVHWYQQKPGQAPVLVVYDDSDRPSGIPERFSGSNSGNTATLIISRVEAGDEADYYCQVWDSSSVHYVFGTGTKLTVLSGGSTITSYNVYYTKLSSSGTQVQLVQSGAEVKKPGSSVRVSCKVSGYTFTGYYMHWVRQAPGQGLEWMGIINPSGGSTSYAQKFQGRVTMTRDTSTSTVYMELSSLRSEDTAVYYCARVRVGASDAFDIWGQGTMVTVSS
Work on B6 yielded a Kd [4] of 280 nM, a Kd [2] of 67.5 nM and a Kd [6] of 67.5 nM. It also gave a Kd [3] of 67.5 nM.

B7: G07 scFv (scFv)
scFv: QSVLIQPPSASGTPGQRVTISCSGSNSNFGSNSVSWYQQRPGTAPKLLIEGNNQRPSGVPERFSGSKSGTSASLAISGLQSEDEAEYSCASWDDSLNAFVFGPGTKLTVLSGGSAITSYNVYYTKLSSSGTQVQLVQSGAEVKKPGESLKISCKGSGYSFTSYWIGWVRQMPGKGLEWMGIIYPGDSDIRYSPSFQGQVTISADKSFSSAYLQWSSLKASDTAMYYCARLGATGAFDIWGQGTTVTVSS
With B7 the Kd [2] was 60.3 nM, the Kd [5] was 60.4 nM and the Kd [3] was 60.3 nM.

B8: H05 scFv (scFv)
scFv: SYVLTQPPSVSVAPGQTARITCGANNIGRISVHWYQQKPGQAPVLVVYDDSDRPSGIPERFSGSNFGNTATLTISRVEAGDEADYYCQVWDSYSDHVIFGGGTKLTVLSGGSTITSYNVYYTKLSSSGTQVQLVQSGAEVKKPGSSVKVSCKASGGTFSSYAISWVRQAPGQGLEWMGGIIPIFGTANYAQKFQGRVTITADESTSTAYMELSSLRSEDTAVYYCARSIFGVVIISHADGYYYGMDVWGQGTTVTVSS
notes: also called H5
B8 was tested, and the Kd [2] was 16.7 nM, the Kd [5] was 16.7 nM and the Kd [3] was 16.7 nM.

B9: R26 scFv (scFv)
scFv: SYELTQPPSVSVAPGQTATITCGGKNIESKSVHWYQQKPGQAPVLVVSDDTDRASGIPERFSGSNSGGAATLTISRVEAGDEADYYCQVWDSPSDHYVFGPGTKLTVLSGGSTITSYNVYYTKLSSSGTQVQLVESGGGVVQPGRSLRLSCAASGFTFSSYAMHWVRQAPGKGLEWVAVISYDGSNKYYADSVKGRFTISRDKAKNTLYLQMNSLRGEDTAVYYCARELSYYDSSGYLRGDWYFDLWGRGTLVTVSS
B9 gave a Kd [7] of 65.3 nM and a Kd [2] of 65.3 nM.

B10: S01 scFv (scFv)
scFv: EIVMTQSPSSLSASVGDSVTITCQASQDISNYLNWYQQKPGKAPKLLIYDASNLETGVPSRFSGGGSGTDFTLTITSLQPEDIATYYCQQYDNFPPTFGPGTKVDIKSGGSTITSYNVYYTKLSSSDTQVQLVESGGGLVKPGGSLRLSCAASGFTVGSNYMSWVRQAPGKGLEWVSVIYSGGSTYYADSVKGRFTISRDNSKNTLYLQMNSLRAEDTAVYYCARGSSGAWYFDLWGRGTLVTVSS
notes: also called 501
B10 gave a Kd [7] of 44.8 nM, a Kd [2] of 44.1 nM and a Kd [3] of 44.1 nM.

B11: E01 rabbit minibody (scFv-rabbit Fc) (Fc fusion)
scFv-Fc: B5 scFv
B11: no binding [8].

B12: F07 rabbit minibody (scFv-rabbit Fc) (Fc fusion)
chain: B6 scFv
B12: no binding [8].

B13: F07 human minibody (scFv-human Fc) (Fc fusion)
chain: B6 scFv
B13: no binding [8].

B14: S01 rabbit minibody (scFv-rabbit Fc) (Fc fusion)
chain: B10 scFv
B14: no binding [8].

B15: S01 human minibody (scFv-human Fc) (Fc fusion)
chain: B10 scFv
B15: no binding [8].

B16: R26 rabbit minibody (scFv-rabbit Fc) (Fc fusion)
scFv-Fc: B9 scFv
B16: no binding [9].

B17: E07 scFv (scFv)
scFv: B6 scFv
B17 was tested, and the Kd [4] was 436 nM.

B18: R09 scFv (scFv)
scFv: QPGLTQPPSVSVSPGQTASITCSGDKLGYKYVSWYQQKPGQSPVLVIYEDTKRPSGIPKRFSGSNSGNTATLTICGTQAVDEADYYCQAWDSSVVFGGGTKLTVLSGGSTITSYNVYDTKLSSSGTQVQLVQSGAEVKKPGASVKVSCKASGYTFTSYGISWVRQAPGQGLEWMGWISAYNGNTNYAQKFQGRVTMTTDTSTSTAYMELRSLRSDDTAVYYCARDMELRPPFDYWGQGTLVTVSS
With B18 the Kd [4] was 4820 nM.

From US12018066 (TRIAD NATIONAL SECURITY, dated 2024)
